According to US20210269836A1 (JOHN INNES CENTRE, published 2021):
Blank lines part the entries; values can stand above or below the binder they belong to.

Legend:
[1] = molecular target: T1, LAMT-YFPC (loganic acid methyltransferase fused to the C-terminal split YFP fragment) (UniProt B2KPR3 1-371); experiment: BiFC in transiently transformed C. roseus cells
T1 construct: Control construct of the BiFC assay; also called LAMT-YC; not shown: C-terminal split YFP fragment (YFPC)
T1 sequence (looked up): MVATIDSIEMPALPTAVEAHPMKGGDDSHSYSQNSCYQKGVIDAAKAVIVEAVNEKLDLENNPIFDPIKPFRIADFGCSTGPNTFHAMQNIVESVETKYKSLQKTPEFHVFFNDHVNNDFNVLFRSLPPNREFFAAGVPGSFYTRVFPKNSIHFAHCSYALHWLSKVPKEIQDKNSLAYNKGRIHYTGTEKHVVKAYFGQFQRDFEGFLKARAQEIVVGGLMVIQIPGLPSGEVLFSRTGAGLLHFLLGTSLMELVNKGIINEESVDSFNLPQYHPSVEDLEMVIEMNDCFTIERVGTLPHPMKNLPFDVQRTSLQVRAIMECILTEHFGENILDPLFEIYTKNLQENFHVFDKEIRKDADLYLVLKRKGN
Method: (§1) Interaction of DPAS with TS and CS. DPAS/CS and DPAS/TS interactions were analyzed by BiFC in C. roseus cells transiently transformed by distinct combinations of plasmids encoding fusions with the two split YFP fragments, YFPN (YN) and YFPC (YC) as indicated on each pictures of the first row (A, D, G, J, M). Identification of transiently transformed cells was achieved by co-transformation with the nucleus (nuc)-CFP marker(B, E, H, K, N). […] Interactions of DPAS and TS with loganic acid methyltransferase (LAMT)-YN and LAMT-YC were also studied to evaluate the specificity of DPAS/TS interactions. Cell morphology is observed with differential interference contrast (DIC) (C, F, I, L, O). Scale bars, 10 μm.
(§2) Transient transformation of C. roseus cells by particle bombardment and fluorescence imaging were performed. Briefly, C. roseus plated cells were bombarded with DNA-coated gold particles (1 μm) and 1,100 psi rupture disc at a stopping-screen-to-target distance of 6 cm, using the Bio-Rad PDS1000/He system. Cells were cultivated for 16 h to 38 h (DPAS, CS and TS) or up to 96 h for PAS before being harvested and observed. The subcellular localization was determined using an Olympus BX-51 epifluorescence microscope equipped with an Olympus DP-71 digital camera and a combination of YFP and CFP filters. […]

[2] = molecular target: T2, LAMT-YFPN (loganic acid methyltransferase fused to the N-terminal split YFP fragment) (UniProt B2KPR3 1-371); experiment: BiFC in transiently transformed C. roseus cells
T2 construct: Control construct of the BiFC assay; also called LAMT-YN; not shown: N-terminal split YFP fragment (YFPN)
T2 sequence (looked up): T1 sequence (looked up)
Method: as §1, §2

- binding result [1]: no binding
B1: TS-YFPN (Tabersonine Synthase fused at its C-terminus to the N-terminal split YFP fragment) (enzyme)
chain: MGSSDETIFDLPPYIKVFKDGRVERLHSSPYVPPSLNDPETGGVSWKDVPISSVVSARIYLPKINNHDEKLPIIVYFHGAGFCLESAFKSFFHTYVKHFVAEAKAIAVSVEFRLAPENHLPAAYEDCWEALQWVASHVGLDISSLKTCIDKDPWIINYADFDRLYLWGDSTGANIVHNTLIRSGKEKLNGGKVKILGAILYYPYFLIRTSSKQSDYMENEYRSYWKLAYPDAPGGNDNPMINPTAENAPDLAGYGCSRLLISMVADEARDITLLYIDALEKSGWKGELDVADFDKQYFELFEMETEVAKNMLRRLASFIK
notes: BiFC fusion expressed transiently inside C. roseus cells; also called TS-YN; not shown: N-terminal split YFP fragment (YFPN) from plasmid pSCA-SPYNE173

- binding result [2]: no binding
B2: YFPC-DPAS (dehydroprecondylocarpine acetate synthase fused at its N-terminus to the C-terminal split YFP fragment) (enzyme)
chain: MAGKSAEEEHPIKAYGWAVKDRTTGILSPFKFSRRATGDDDVRIKILYCGICHTDLASIKNEYEFLSYPLVPGMEIVGIATEVGKDVTKVKVGEKVALSAYLGCCGKCYSCVNELENYCPEVIIGYGTPYHDGTICYGGLSNETVANQSFVLRFPERLSPAGGAPLLSAGITSFSAMRNSGIDKPGLHVGVVGLGGLGHLAVKFAKAFGLKVTVISTTSKKDDAINGLGADGFLLSRDDEQMKAAIGTLDAIIDTLAVVHPIAPLLDLLRSQGKFLLLGAPSQSLELPPIPLLSGGKSIIGSAAGNVKQTQEMLDFAAEHDITANVEIIPIEYINTAMERLDKGDVRYRFVVDIENTLTPPSEL
notes: BiFC fusion expressed transiently inside C. roseus cells; also called YC-DPAS; dihydroprecondylocarpine acetate synthase; not shown: C-terminal split YFP fragment (YFPC) from plasmid pSCA-SPYCE (MR)
